Target: SHP2-C SH2
Test: SH2 binding enrichment of the phosphorylated peptide, bacterial display (enrichment ratio); higher = better substrate or ligand; peptides without Tyr show the background
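Also: peptide library displayed on the E. coli surface as eCPX fusions, selected cells deep-sequenced, score is each peptide's frequency after selection divided by its frequency in the input.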

| Sequence | SH2 binding enrichment |
| --- | --- |
| RNFGTYTAGLS [RHBDD1_Y264_D262G_YF] | 0.684 |
| LERYIYNRQEF [HLA-DPB1_Y59_E62Q] | 0.703 |
| YASALYGQRRS [FGF11_Y162_R163G] | 0.424 |
| VMIFAYLLHRG [PTEN_Y138_C136Y_YF] | 1.52 |
| FHKALYTVRTF [PDE6C_Y266_S270T_YF] | 0.722 |
| SFPPTYRYERG [INPPL1_Y661] | 0.605 |
| KDFETYQPFQN [CTNND2_Y1157_YF] | 0.699 |
| PGLSSYGVPAS [FLNB_Y1530] | 0.658 |
| KYACSYTPVKA [FLNB_Y708_T703K] | 2.91 |
| KYLENYLNRLL [PLD2_Y169] | 1.44 |
| TKLKDYYIFNK [CCDC42_Y149_A144T] | 1.1 |
| FAGRDYSLDEF [MYOF_Y1705_G1701A_YF] | 0.712 |
| IVRSLYEDLED [VHL_Y185] | 1.03 |
| QRALLYEDALY [UNC13D_Y56] | 0.542 |
| NCLRVYVAGRF [CRB1_Y711_E710V] | 0.97 |
| LGEGSYGKVKE [STK11_Y60] | 0.52 |
| GSESDYIVMPN [SCARB1_Y133] | 0.55 |

| Sequence | SH2 binding enrichment |
| --- | --- |
| YLNSSYINIST [IL23R_Y178_T175N] | 2.57 |
| TTPAVYARVTK [CTRB2_Y246_A250T] | 0.383 |
| EHFSFYGMKAV [SLC15A2_Y61_R57H_YF] | 0.629 |
| PLLLSYYLIKW [NUP160_Y773] | 1.45 |
| VVHGSYDEIEG [SEC24A_Y263_S261G] | 0.604 |
| FLAVGDHKPHI [IDS_Y225_Y225D] | 0.857 |
| REIIAYQPYGK [PRKCG_Y529_P524R] | 0.538 |
| FDNPVCQKTTE [LDLR_Y828_Y828C] | 0.812 |
| NKKYHYRELPV [ERN2_Y860_H858Y] | 1.12 |
| IKNPQYFSDAC [NTRK1_Y496_E492K] | 0.895 |
| CTTIDYNYMCN [TP53_Y234_H233D] | 1 |
| VLALWYYYLTN [ZDHHC23_Y127_H132N] | 1.22 |
| SIIKDYFHRGA [GATM_Y203] | 0.607 |
| VGEGPYLLSDL [ABCC12_Y7_I9L] | 0.547 |
| CATIHYNFMCN [TP53_Y234_T230A_YF] | 1.51 |
| VFPATYHPDHW [EFCAB12_Y544_YF] | 0.722 |

Target: c-Src SH2
Test: as above

| Sequence | SH2 binding enrichment |
| --- | --- |
| RNFGTYTAGLS [RHBDD1_Y264_D262G_YF] | 0.437 |
| LERYIYNRQEF [HLA-DPB1_Y59_E62Q] | 0.477 |
| YASALYGQRRS [FGF11_Y162_R163G] | 0.553 |
| VMIFAYLLHRG [PTEN_Y138_C136Y_YF] | 0.837 |
| FHKALYTVRTF [PDE6C_Y266_S270T_YF] | 0.536 |
| SFPPTYRYERG [INPPL1_Y661] | 0.489 |
| KDFETYQPFQN [CTNND2_Y1157_YF] | 0.544 |
| PGLSSYGVPAS [FLNB_Y1530] | 0.545 |
| KYACSYTPVKA [FLNB_Y708_T703K] | 1.28 |
| KYLENYLNRLL [PLD2_Y169] | 1.27 |
| TKLKDYYIFNK [CCDC42_Y149_A144T] | 0.88 |
| FAGRDYSLDEF [MYOF_Y1705_G1701A_YF] | 0.69 |
| IVRSLYEDLED [VHL_Y185] | 7.79 |
| QRALLYEDALY [UNC13D_Y56] | 0.843 |
| NCLRVYVAGRF [CRB1_Y711_E710V] | 0.678 |
| LGEGSYGKVKE [STK11_Y60] | 0.571 |
| GSESDYIVMPN [SCARB1_Y133] | 0.455 |

| Sequence | SH2 binding enrichment |
| --- | --- |
| YLNSSYINIST [IL23R_Y178_T175N] | 4.78 |
| TTPAVYARVTK [CTRB2_Y246_A250T] | 2.11 |
| EHFSFYGMKAV [SLC15A2_Y61_R57H_YF] | 0.41 |
| PLLLSYYLIKW [NUP160_Y773] | 0.966 |
| VVHGSYDEIEG [SEC24A_Y263_S261G] | 22.5 |
| FLAVGDHKPHI [IDS_Y225_Y225D] | 0.478 |
| REIIAYQPYGK [PRKCG_Y529_P524R] | 0.808 |
| FDNPVCQKTTE [LDLR_Y828_Y828C] | 0.563 |
| NKKYHYRELPV [ERN2_Y860_H858Y] | 1.06 |
| IKNPQYFSDAC [NTRK1_Y496_E492K] | 0.524 |
| CTTIDYNYMCN [TP53_Y234_H233D] | 1.34 |
| VLALWYYYLTN [ZDHHC23_Y127_H132N] | 1.02 |
| SIIKDYFHRGA [GATM_Y203] | 0.537 |
| VGEGPYLLSDL [ABCC12_Y7_I9L] | 0.361 |
| CATIHYNFMCN [TP53_Y234_T230A_YF] | 2.23 |
| VFPATYHPDHW [EFCAB12_Y544_YF] | 0.519 |

— the supplement of paper PMC10065799, “High-throughput profiling of sequence recognition by tyrosine kinases and SH2 domains using bacterial peptide display” (eLife, 2023)
